Measurements reported in US20120276102A1 (Pfizer, published 2012).

Legend:
[1] = molecular target: human IL-21R expressed on cells (human, UniProt Q9HBE5 20-538); experiment: cell-based or functional assay
[2] = molecular target: murine IL-21R expressed on cells (murine, UniProt Q9JHX3 20-529); experiment: cell-based or functional assay
[3] = molecular target: T1, murine IL-21R extracellular domain His-Flag fusion protein (murine, UniProt Q9JHX3 20-237); experiment: competition ELISA; competitor plate-bound 18A5 IgG
T1 construct: Biotinylated in the ELISAs; also called mIL-21R-H/F; murine IL-21R-H/F
Method: Blocked plates were washed 3× with PBS, and 50 μl/well of scFv/IL-21R mixtures were transferred to the appropriate plates and incubated for 1 hr at RT. Plates were washed 5× with PBS prior to the addition of a 1:6000 dilution of horseradish peroxidase-conjugated streptavidin (Southern Biotech, Birmingham, Ala.) secondary antibody to detect bound biotinylated mIL-21R-H/F. Plates were then incubated for 1 hr at RT and washed 7× with PBS. Signal was developed using 3,3′,5,5′-tetramethylbenzidine (TMB), the reaction stopped with H₂SO₄, and the absorbance read at 450 nm on an ENVISION™ plate reader (Perkin Elmer).

human IL-21R expressed on cells, sequence (Q9HBE5 20-538 limits assumed): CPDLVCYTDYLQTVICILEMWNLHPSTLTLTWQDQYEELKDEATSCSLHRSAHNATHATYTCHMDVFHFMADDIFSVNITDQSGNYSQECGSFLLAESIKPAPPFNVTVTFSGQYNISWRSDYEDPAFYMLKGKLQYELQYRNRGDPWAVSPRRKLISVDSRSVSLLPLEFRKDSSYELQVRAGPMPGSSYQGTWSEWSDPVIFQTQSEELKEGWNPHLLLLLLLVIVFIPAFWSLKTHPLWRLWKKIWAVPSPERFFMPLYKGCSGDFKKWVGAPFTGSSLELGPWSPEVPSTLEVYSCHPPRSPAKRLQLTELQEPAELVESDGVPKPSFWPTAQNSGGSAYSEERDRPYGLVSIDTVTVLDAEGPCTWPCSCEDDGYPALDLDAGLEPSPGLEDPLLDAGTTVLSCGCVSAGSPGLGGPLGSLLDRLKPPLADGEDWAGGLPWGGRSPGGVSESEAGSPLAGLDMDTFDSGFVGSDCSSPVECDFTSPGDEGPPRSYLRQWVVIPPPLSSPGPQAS

| Binder | IC50, Human IL-21R-BaF3 Neutralization Assay [1] | IC50, Human IL-21R-TF1 Neutralization Assay [1] | IC50, Murine IL-21R-BaF3 Neutralization Assay [2] | IC50 [3] |
| --- | --- | --- | --- | --- |
| scFv H3 (scFv) scFv: QVQLQESGPGLVKTSETLSLTCAVSGYSISSGYYWGWIRQPPGKGLEWIGSISHTGNTYYNPPLKSRVTISVDTSKNQFSLKLSSVTAADTAVYYCARFMGFGRPEYWGKGTLVTVSSGGGGSGGGGSGGGGSALSSELTQDPPVSVALGQTVTLTCQGDSLRTYYASWYQQKSGQAPILLLYGKHKRPSGIPDRFSGSTSGDTASLTITGAQAEDEADYYCNSRDSSGNPHVLFGGGTQLTVL | 7.7 nM | 98.1 nM | 25.7 nM | 14 nM |
| scFv L3 (scFv) scFv: QVQLQESGPGLVKTSETLSLTCAVSGYSISSGYYWGWIRQPPGKGLEWIGSISHTGNTYYNPPLKSRVTISVDTSKNQFSLKLSSVTAADTAVYYCARGGGISRPEYWGKGTLVTVSSGGGGSGGGGSGGGGSALSSELTQDPPVSVALGQTVTLTCQGDSLRTYYASWYQQKSGQAPILLLYGKHKRPSGIPDRFSGSTSGDTASLTITGAQAEDEADYYCVSRAVVGNPHVLFGGGTQLTVL | 27.6 nM | ~7 nM | 13.8 nM | 100 nM |
| scFv L6 (scFv) scFv: QVQLQESGPGLVKTSETLSLTCAVSGYSISSGYYWGWIRQPPGKGLEWIGSISHTGNTYYNPPLKSRVTISVDTSKNQFSLKLSSVTAADTAVYYCARGGGISRPEYWGKGTLVTVSSGGGGSGGGGSGGGGSALSSELTQDPPVSVALGQTVTLTCQGDSLRTYYASWYQQKSGQAPILLLYGKHKRPSGIPDRFSGSTSGDTASLTITGAQAEDEADYYCMSRSIWGNPHVLFGGGTQLTVL | 5.9 nM | ~150 nM | 0.29 nM | 4 nM |
| scFv L2 (scFv) scFv: QVQLQESGPGLVKTSETLSLTCAVSGYSISSGYYWGWIRQPPGKGLEWIGSISHTGNTYYNPPLKSRVTISVDTSKNQFSLKLSSVTAADTAVYYCARGGGISRPEYWGKGTLVTVSSGGGGSGGGGSGGGGSALSSELTQDPPVSVALGQTVTLTCQGDSLRTYYASWYQQKSGQAPILLLYGKHKRPSGIPDRFSGSTSGDTASLTITGAQAEDEADYYCVARSVVGNPHVLFGGGTQLTVL | 3.1 nM | 37.5 nM | 2.41 nM | 5 nM |
| scFv L4 (scFv) scFv: QVQLQESGPGLVKTSETLSLTCAVSGYSISSGYYWGWIRQPPGKGLEWIGSISHTGNTYYNPPLKSRVTISVDTSKNQFSLKLSSVTAADTAVYYCARGGGISRPEYWGKGTLVTVSSGGGGSGGGGSGGGGSALSSELTQDPPVSVALGQTVTLTCQGDSLRTYYASWYQQKSGQAPILLLYGKHKRPSGIPDRFSGSTSGDTASLTITGAQAEDEADYYCSTRSSKGNPHVLFGGGTQLTVL | 2.1 nM | ~60 nM |  | 8 nM |
| scFv H5 (scFv) scFv: QVQLQESGPGLVKTSETLSLTCAVSGYSISSGYYWGWIRQPPGKGLEWIGSISHTGNTYYNPPLKSRVTISVDTSKNQFSLKLSSVTAADTAVYYCARFLGFGRPEYWGKGTLVTVSSGGGGSGGGGSGGGGSALSSELTQDPPVSVALGQTVTLTCQGDSLRTYYASWYQQKSGQAPILLLYGKHKRPSGIPDRFSGSTSGDTASLTITGAQAEDEADYYCNSRDSSGNPHVLFGGGTQLTVL | 7.9 nM | 178 nM | 53.7 nM | 17 nM |

Continued, values first:

| IC50, Human IL-21R-BaF3 Neutralization Assay [1] | IC50, Human IL-21R-TF1 Neutralization Assay [1] | IC50, Murine IL-21R-BaF3 Neutralization Assay [2] | IC50 [3] | Binder |
| --- | --- | --- | --- | --- |
| 3.8 nM | 9.3 nM |  |  | scFv H4 (scFv) scFv: QVQLQESGPGLVKTSETLSLTCAVSGYSISSGYYWGWIRQPPGKGLEWIGSISHTGNTYYNPPLKSRVTISVDTSKNQFSLKLSSVTAADTAVYYCARWLGFGRPEYWGKGTLVTVSSGGGGSGGGGSGGGGSALSSELTQDPPVSVALGQTVTLTCQGDSLRTYYASWYQQKSGQAPILLLYGKHKRPSGIPDRFSGSTSGDTASLTITGAQAEDEADYYCNSRDSSGNPHVLFGGGTQLTVL |
| 15.1 nM | 7 nM |  | 40 nM | scFv L10 (scFv) scFv: QVQLQESGPGLVKTSETLSLTCAVSGYSISSGYYWGWIRQPPGKGLEWIGSISHTGNTYYNPPLKSRVTISVDTSKNQFSLKLSSVTAADTAVYYCARGGGISRPEYWGKGTLVTVSSGGGGSGGGGSGGGGSALSSELTQDPPVSVALGQTVTLTCQGDSLRTYYASWYQQKSGQAPILLLYGKHKRPSGIPDRFSGSTSGDTASLTITGAQAEDEADYYCISRSIYGNPHVLFGGGTQLTVL |
| 3.7 nM | ~55 nM | 28.8 nM | 7 nM | scFv L1 (scFv) scFv: QVQLQESGPGLVKTSETLSLTCAVSGYSISSGYYWGWIRQPPGKGLEWIGSISHTGNTYYNPPLKSRVTISVDTSKNQFSLKLSSVTAADTAVYYCARGGGISRPEYWGKGTLVTVSSGGGGSGGGGSGGGGSALSSELTQDPPVSVALGQTVTLTCQGDSLRTYYASWYQQKSGQAPILLLYGKHKRPSGIPDRFSGSTSGDTASLTITGAQAEDEADYYCASRSVSGNPHVLFGGGTQLTVL |
| 2.1 nM | ~20 nM | 38.5 nM | 7 nM | scFv L5 (scFv) scFv: QVQLQESGPGLVKTSETLSLTCAVSGYSISSGYYWGWIRQPPGKGLEWIGSISHTGNTYYNPPLKSRVTISVDTSKNQFSLKLSSVTAADTAVYYCARGGGISRPEYWGKGTLVTVSSGGGGSGGGGSGGGGSALSSELTQDPPVSVALGQTVTLTCQGDSLRTYYASWYQQKSGQAPILLLYGKHKRPSGIPDRFSGSTSGDTASLTITGAQAEDEADYYCASRSSKGNPHVLFGGGTQLTVL |
| 1.5 nM | 15.3 nM |  | 12 nM | scFv L23 (scFv) scFv: QVQLQESGPGLVKTSETLSLTCAVSGYSISSGYYWGWIRQPPGKGLEWIGSISHTGNTYYNPPLKSRVTISVDTSKNQFSLKLSSVTAADTAVYYCARGGGISRPEYWGKGTLVTVSSGGGGSGGGGSGGGGSALSSELTQDPPVSVALGQTVTLTCQGDSLRTYYASWYQQKSGQAPILLLYGKHKRPSGIPDRFSGSTSGDTASLTITGAQAEDEADYYCSARSVRGNPHVLFGGGTQLTVL |
| 13.8 nM | ~150 nM |  | 13 nM | scFv H6 (scFv) scFv: QVQLQESGPGLVKTSETLSLTCAVSGYSISSGYYWGWIRQPPGKGLEWIGSISHTGNTYYNPPLKSRVTISVDTSKNQFSLKLSSVTAADTAVYYCARFFGFGRPEYWGKGTLVTVSSGGGGSGGGGSGGGGSALSSELTQDPPVSVALGQTVTLTCQGDSLRTYYASWYQQKSGQAPILLLYGKHKRPSGIPDRFSGSTSGDTASLTITGAQAEDEADYYCNSRDSSGNPHVLFGGGTQLTVL |
